Laboratory results taken from paper PMC5021983.

Tests used:
Test in all cases: FRET titration
MeCP2 (human) = conditions: EMSA: 5 nM nucleosome, 130 mM NaCl, 10% glycerol, 10 mM Tris-HCl pH 8, 0.005% Tween 20, 0.5x TE, room temperature 3 min, 5% native PAGE in 0.3x TTE; FRET: 5 nM …
Gal4 = conditions: EMSA: 5 nM nucleosome, 130 mM NaCl, 10% glycerol, 10 mM Tris-HCl pH 8, 0.005% Tween 20, 0.5x TE, room temperature 3 min, 5% native PAGE in 0.3x TTE, FRET: 5 nM …
histone H1 (Drosophila) = conditions: EMSA: 5 nM nucleosome, 130 mM NaCl, 10% glycerol, 10 mM Tris-HCl pH 8, 0.005% Tween 20, 0.5x TE, room temperature 3 min, 5% native PAGE in 0.3x TTE; FRET: 5 nM …

For “601 mononucleosome with Gal4 site, 247 bp (FRET construct)”, the K half (MeCP2 (human)) was 20.7 nM, the K half (Gal4; no CAP, 5 nM nucleosome, Hill coefficient -3.76 ± 2.16) was 3.06 nM and the K half (Gal4; nucleosome prebound with 25 nM MeCP2, Hill coefficient -1.47 ± 0.22) was 12.2 nM. The K half (histone H1 (Drosophila)) was 12.1 nM.
